Publication doi:10.1101/2023.07.18.549520

Columns and labels:
[1] = biological target: type I gelatin (heat-denatured acid-soluble type I atelocollagen from bovine hides) (bovine) (UniProt P02453); assay: ELISA
[2] = biological target: soluble type I collagen (acid-soluble type I atelocollagen from bovine hides) (bovine) (UniProt P02453); assay: ELISA
[3] = biological target: V-domain of Scl2.3 (Streptococcus pyogenes); assay: SDS-PAGE

Sequence of soluble type I collagen (acid-soluble type I atelocollagen from bovine hides) (bovine) (P02453 162-1217, chain 1 of 2): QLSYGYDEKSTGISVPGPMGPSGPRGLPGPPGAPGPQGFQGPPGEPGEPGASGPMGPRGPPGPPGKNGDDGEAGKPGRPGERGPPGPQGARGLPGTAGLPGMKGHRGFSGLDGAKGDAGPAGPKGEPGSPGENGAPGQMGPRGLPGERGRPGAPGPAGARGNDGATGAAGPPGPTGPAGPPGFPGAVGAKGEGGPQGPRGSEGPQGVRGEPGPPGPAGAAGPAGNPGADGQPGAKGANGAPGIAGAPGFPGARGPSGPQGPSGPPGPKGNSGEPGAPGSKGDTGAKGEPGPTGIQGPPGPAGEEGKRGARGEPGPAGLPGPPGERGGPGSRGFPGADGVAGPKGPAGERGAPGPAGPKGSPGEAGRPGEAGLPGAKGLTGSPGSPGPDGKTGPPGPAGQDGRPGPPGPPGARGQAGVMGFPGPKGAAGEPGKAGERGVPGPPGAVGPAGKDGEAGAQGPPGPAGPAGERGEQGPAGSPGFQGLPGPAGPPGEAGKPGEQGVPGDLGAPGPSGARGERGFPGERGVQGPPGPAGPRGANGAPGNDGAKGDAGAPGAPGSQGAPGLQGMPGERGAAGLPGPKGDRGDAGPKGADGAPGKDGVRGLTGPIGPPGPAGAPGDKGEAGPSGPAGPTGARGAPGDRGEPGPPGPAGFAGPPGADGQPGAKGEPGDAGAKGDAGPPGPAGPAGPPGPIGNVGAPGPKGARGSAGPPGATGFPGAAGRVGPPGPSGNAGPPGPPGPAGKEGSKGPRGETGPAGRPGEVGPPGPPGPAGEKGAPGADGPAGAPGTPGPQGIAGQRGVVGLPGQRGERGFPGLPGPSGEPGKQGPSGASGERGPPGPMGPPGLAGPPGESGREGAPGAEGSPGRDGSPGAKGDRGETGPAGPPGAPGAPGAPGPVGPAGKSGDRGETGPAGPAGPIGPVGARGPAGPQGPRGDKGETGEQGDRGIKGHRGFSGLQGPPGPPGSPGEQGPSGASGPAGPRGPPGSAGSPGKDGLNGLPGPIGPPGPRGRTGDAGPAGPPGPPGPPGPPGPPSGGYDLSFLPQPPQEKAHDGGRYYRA
Sequence of soluble type I collagen (acid-soluble type I atelocollagen from bovine hides) (bovine) (P02465 80-1117, chain 2 of 2, further chain): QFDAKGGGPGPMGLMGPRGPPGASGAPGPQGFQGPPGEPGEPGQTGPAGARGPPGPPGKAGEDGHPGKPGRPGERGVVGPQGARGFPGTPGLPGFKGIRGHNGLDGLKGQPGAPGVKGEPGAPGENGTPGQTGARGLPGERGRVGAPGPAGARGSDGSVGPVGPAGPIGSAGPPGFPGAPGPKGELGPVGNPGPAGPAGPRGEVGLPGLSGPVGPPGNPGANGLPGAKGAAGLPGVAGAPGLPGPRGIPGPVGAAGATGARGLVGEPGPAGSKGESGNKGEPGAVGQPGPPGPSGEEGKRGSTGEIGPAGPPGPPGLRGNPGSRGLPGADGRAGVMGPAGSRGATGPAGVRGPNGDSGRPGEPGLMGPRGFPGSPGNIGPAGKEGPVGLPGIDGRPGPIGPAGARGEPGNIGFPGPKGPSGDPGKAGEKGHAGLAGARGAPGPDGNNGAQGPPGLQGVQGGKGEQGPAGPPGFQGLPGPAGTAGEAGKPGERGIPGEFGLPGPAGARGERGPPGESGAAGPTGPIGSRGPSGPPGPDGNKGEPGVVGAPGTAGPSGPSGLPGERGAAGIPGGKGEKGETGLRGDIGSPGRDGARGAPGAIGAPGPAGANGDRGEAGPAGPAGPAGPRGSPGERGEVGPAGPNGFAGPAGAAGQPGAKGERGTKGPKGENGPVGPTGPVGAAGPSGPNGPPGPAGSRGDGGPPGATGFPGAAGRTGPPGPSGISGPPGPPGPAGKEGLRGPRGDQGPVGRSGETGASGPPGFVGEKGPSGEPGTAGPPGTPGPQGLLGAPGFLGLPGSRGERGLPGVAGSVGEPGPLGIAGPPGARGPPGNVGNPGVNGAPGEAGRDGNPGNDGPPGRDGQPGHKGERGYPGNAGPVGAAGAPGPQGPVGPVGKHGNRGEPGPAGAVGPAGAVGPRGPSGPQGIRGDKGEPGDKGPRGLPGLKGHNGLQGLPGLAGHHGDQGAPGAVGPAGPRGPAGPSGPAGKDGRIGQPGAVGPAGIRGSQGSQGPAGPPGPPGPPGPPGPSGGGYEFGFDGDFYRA
Sequence of type I gelatin (heat-denatured acid-soluble type I atelocollagen from bovine hides) (bovine) (P02453 162-1217, chain 1 of 2): as the sequence (P02453 162-1217, chain 1 of 2) above
Sequence of type I gelatin (heat-denatured acid-soluble type I atelocollagen from bovine hides) (bovine) (P02465 80-1117, chain 2 of 2, further chain): as the sequence (P02465 80-1117, chain 2 of 2, further chain) above

“ColG-CU E524A (Y119-G790) (domain or fragment)” gave a Kd [1] of 0.08 µM and a Kd [2] of 0.37 µM.
“ColG-PD E524A (D398-G790) (domain or fragment)” was tested, and the Kd [1] was 243 µM and the Kd [2] was 497 µM.
ColQ1-CU G472V (domain or fragment) was tested, and the Kd [1] was 1.6 µM and the Kd [2] was 1.6 µM.
Work on “ColQ1-CU G472V F176A (domain or fragment)” yielded a fold increase in affinity against ColQ1-CU G472V (WT) [2] of 20 fold.
In the case of “ColQ1-CU G472V N226A (domain or fragment)”, the fold drop in binding affinity against ColQ1-CU G472V (WT) [1] is reported as 90 fold and the fold reduction in binding affinity against ColQ1-CU G472V (WT) [2] is reported as > 90 fold.
In the case of “ColQ1-CU G472V R169A (domain or fragment)”, the fold increase in affinity against ColQ1-CU G472V (WT) [2] is reported as 9 fold.
“ColQ1-CU G472V Y173A (domain or fragment)” gave a fold drop in binding affinity against ColQ1-CU G472V (WT) [1] of 15 fold.
Work on “ColQ1-CU G472V Y270A (domain or fragment)” yielded a fold increase in affinity against ColQ1-CU G472V (WT) [2] of 8 fold.
With V-domain of Scl2.3 (domain or fragment) the stoichiometry N [3] was 3.
